According to US20100227824A1 (SYMTHERA CANADA, published 2010):
Ends that are not written are not given here. * marks the point of attachment. Biotin = O=C1N[C@H]2[C@H](CS[C@H]2CCCCC(=O)*)N1

What was measured:
MCP-1 (CCL2) = target: T1, MCP-1 (CCL2) (UniProt P13500 24-99); assay: micro-array, biotinylated peptide on printed CK
T1 construct: Bought chemokine

SDF-1β (CXCL12) = target: T2, SDF-1β (CXCL12) (UniProt P48061 22-93); assay: micro-array, biotinylated peptide on printed CK
T2 construct: Beta isoform of CXCL12; also called SDFβ

GRO-β (CXCL2) = target: T3, GRO-β (CXCL2) (UniProt P19875 35-107); assay: micro-array, biotinylated peptide on printed CK
T3 construct: Bought chemokine
T3 sequence (looked up): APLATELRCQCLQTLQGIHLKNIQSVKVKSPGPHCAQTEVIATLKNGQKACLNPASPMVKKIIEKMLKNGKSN

Eotaxin 2 (CCL24) = target: T4, Eotaxin 2 (CCL24) (UniProt O00175 27-104, limits assumed); assay: micro-array, biotinylated peptide on printed CK
T4 construct: Bought chemokine
T4 sequence (looked up): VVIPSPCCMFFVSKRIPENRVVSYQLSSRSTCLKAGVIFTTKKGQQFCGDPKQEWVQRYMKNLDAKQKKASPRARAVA

SDF-1α (CXCL12) = target: T5, SDF-1α (CXCL12) (UniProt P48061-2 22-89); assay: micro-array, biotinylated peptide on printed CK
T5 construct: Alpha isoform of CXCL12; also called SDFα

TECK (CCL25) = target: T6, TECK (CCL25) (UniProt O15444 24-150); assay: micro-array, biotinylated peptide on printed CK
T6 construct: Bought chemokine
T6 sequence (looked up): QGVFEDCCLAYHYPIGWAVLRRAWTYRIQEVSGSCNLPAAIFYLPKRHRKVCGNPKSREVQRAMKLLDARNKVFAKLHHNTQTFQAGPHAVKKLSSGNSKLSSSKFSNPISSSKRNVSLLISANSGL

Eotaxin (CCL11) = target: T7, Eotaxin (CCL11) (UniProt P51671 24-97); assay: micro-array, biotinylated peptide on printed CK
T7 construct: Bought chemokine

BCA-1 (CXCL13) = target: T8, BCA-1 (CXCL13) (UniProt O43927 23-109); assay: micro-array, biotinylated peptide on printed CK
T8 construct: Bought chemokine
T8 sequence (looked up): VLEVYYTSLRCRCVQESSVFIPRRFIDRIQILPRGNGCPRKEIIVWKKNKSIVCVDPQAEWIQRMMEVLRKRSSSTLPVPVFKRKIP

I-TAC (CXCL11) = target: T9, I-TAC (CXCL11) (UniProt O14625 22-94); assay: micro-array, biotinylated peptide on printed CK
T9 construct: Bought chemokine; also called I-TACK
T9 sequence (looked up): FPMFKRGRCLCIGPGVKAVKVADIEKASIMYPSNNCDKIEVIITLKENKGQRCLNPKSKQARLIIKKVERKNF

I-309 (CCL1) = target: T10, I-309 (CCL1) (UniProt P22362 23-96, limits assumed); assay: micro-array, biotinylated peptide on printed CK
T10 construct: Bought chemokine
T10 sequence (looked up): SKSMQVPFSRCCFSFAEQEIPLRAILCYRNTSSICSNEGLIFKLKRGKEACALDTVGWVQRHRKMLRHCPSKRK

Eotaxin 3 (CCL26) = target: T11, Eotaxin 3 (CCL26) (UniProt Q9Y258 24-94); assay: micro-array, biotinylated peptide on printed CK
T11 construct: Bought chemokine
T11 sequence (looked up): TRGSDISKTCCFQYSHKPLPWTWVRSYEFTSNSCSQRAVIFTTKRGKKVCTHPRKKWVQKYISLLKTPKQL

Lymphotactin (XCL-1) = target: T12, Lymphotactin (XCL-1) (UniProt P47992 23-114, limits assumed); assay: micro-array, biotinylated peptide on printed CK
T12 construct: Bought chemokine
T12 sequence (looked up): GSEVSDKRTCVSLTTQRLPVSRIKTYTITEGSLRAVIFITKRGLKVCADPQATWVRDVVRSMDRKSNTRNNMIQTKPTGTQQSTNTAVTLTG

Mig (CXCL9) [1] = target: T13, Mig (CXCL9) (UniProt Q07325 23-125); assay: SPR, ProteOn XPR36, GLM chip
T13 construct: Bought chemokine
T13 sequence (looked up): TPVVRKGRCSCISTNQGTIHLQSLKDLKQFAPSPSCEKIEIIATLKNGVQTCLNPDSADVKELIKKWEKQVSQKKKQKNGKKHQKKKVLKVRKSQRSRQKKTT
Protocol: (§1) Surface Plasmon Resonance (SPR): SPR was performed to make a quantitative determination of CK-peptide affinity. SPR measures the apparent equilibrium dissociation constant (KD) of the CK-binding peptide in the CK-peptide complex. KD is the ratio of the rate constants, Kd (1/s) and Kₐ (1/Ms), Kd/Kₐ. SPR was done with the ProteOn XPR36-Protein Interaction Array System (BioRad, Israel) with the Sensor Chip, GLM (sensor range 12-15 K response units).
(§2) Summary of Results: Affinity of Chemokine—Peptide Inteaction. […] The affinity with which peptides interact with CKs is relevant for low affinity reagents that are intended to engage multiple disease-related target proteins. SPR analysis was employed to determine the apparent equilibrium dissociation constants (KD) of CK-peptide complexes. […] Peptide binding in the micro-milli molar range is low affinity interaction. SPR analysis also corroborated differential binding measurements made by the micro-array analysis (FIG. 25b).

IL-8 (CXCL8) = target: T14, IL-8 (CXCL8) (UniProt P10145 28-99, limits assumed); assay: SPR, ProteOn XPR36, GLM chip
T14 construct: also called IL-8(72aa); IL-8(77aa)
T14 sequence (looked up): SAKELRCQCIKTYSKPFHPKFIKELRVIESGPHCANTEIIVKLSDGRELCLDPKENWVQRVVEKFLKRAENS
Protocol: as §1, §2

MIP-3α (CCL20) = target: T15, MIP-3α (CCL20) (UniProt P78556 27-96); assay: micro-array, biotinylated peptide on printed CK
T15 construct: Bought chemokine

Mig (CXCL9) [2] = target: T13, Mig (CXCL9); assay: micro-array, biotinylated peptide on printed CK
MCP-4 (CCL13) = target: T16, MCP-4 (CCL13) (UniProt Q99616 24-98); assay: micro-array, biotinylated peptide on printed CK
T16 construct: Bought chemokine

RANTES (CCL5) = target: T17, RANTES (CCL5) (UniProt P13501 24-91); assay: micro-array, biotinylated peptide on printed CK
T17 construct: Bought chemokine
T17 sequence (looked up): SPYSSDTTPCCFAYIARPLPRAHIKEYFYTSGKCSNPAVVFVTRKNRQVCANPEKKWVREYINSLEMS

Exodus-2 (CCL21) = target: T18, Exodus-2 (CCL21) (UniProt O00585 24-134); assay: micro-array, biotinylated peptide on printed CK
T18 construct: Bought chemokine
T18 sequence (looked up): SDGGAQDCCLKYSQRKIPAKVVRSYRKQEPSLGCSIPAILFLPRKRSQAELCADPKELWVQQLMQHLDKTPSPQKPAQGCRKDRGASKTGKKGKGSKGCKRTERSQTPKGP

T7 sequence (P51671 24-97 limits assumed): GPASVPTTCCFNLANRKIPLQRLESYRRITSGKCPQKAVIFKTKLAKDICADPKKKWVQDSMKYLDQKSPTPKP
T2 sequence (P48061 22-93 limits assumed): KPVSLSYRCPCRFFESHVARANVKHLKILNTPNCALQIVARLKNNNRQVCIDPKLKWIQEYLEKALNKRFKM
T5 sequence (P48061 22-89 limits assumed): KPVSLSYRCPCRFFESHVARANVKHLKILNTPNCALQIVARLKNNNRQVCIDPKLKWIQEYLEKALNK
T1 sequence (P13500 24-99 limits assumed): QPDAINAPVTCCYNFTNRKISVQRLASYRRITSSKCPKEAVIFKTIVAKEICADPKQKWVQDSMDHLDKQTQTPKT
T16 sequence (Q99616 24-98 limits assumed): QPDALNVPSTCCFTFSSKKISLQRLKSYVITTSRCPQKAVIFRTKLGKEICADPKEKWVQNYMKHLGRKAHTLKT
T15 sequence (P78556 27-96 limits assumed): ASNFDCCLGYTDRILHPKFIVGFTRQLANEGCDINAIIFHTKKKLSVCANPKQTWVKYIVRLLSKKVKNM

Biotin-FFGLNNC [Chemokine Binding Peptide 10 (CBP10)]
Relative Fluorescence Units (RFU) (MCP-1 (CCL2)): > 600 RFU
binding result (SDF-1β (CXCL12)): binds
binding result (GRO-β (CXCL2)): binds
binding result (Eotaxin 2 (CCL24)): binds
binding result (SDF-1α (CXCL12)): binds
binding result (TECK (CCL25)): binds
binding result (Eotaxin (CCL11)): binds
binding result (BCA-1 (CXCL13)): binds
binding result (I-TAC (CXCL11)): binds
binding result (I-309 (CCL1)): binds
binding result (Eotaxin 3 (CCL26)): binds
binding result (Lymphotactin (XCL-1)): binds

VTTFFDYDYGAPC (Peptide used in SPR; also called CB6R2) [CBP6 (VTTFFDYDYGAPC, from the N-terminal of CCR2)]
Kd (Mig (CXCL9) [1]): 28.2 µM
Kd (IL-8 (CXCL8)): 1060 µM

B1: Chemokine Binding Peptide 5 (CBP5) (peptide)
peptide: Biotin-LFGNDCE
notes: Synthetic biotinylated peptide, not phage-presented
binding result (MCP-1 (CCL2)): binds
binding result (MIP-3α (CCL20)): binds
binding result (SDF-1β (CXCL12)): binds
binding result (Mig (CXCL9) [2]): binds
binding result (SDF-1α (CXCL12)): binds
Relative Fluorescence Units (RFU) (MCP-4 (CCL13)): > 2500 RFU
Relative Fluorescence Units (RFU) (RANTES (CCL5)): > 2500 RFU
binding result (TECK (CCL25)): binds
Relative Fluorescence Units (RFU) (Eotaxin (CCL11)): > 2500 RFU
binding result (Exodus-2 (CCL21)): binds
binding result (I-309 (CCL1)): binds
Relative Fluorescence Units (RFU) (Eotaxin 3 (CCL26)): > 2500 RFU
